Tests used:
CD4-Ig [1] = biological target: CD4-Ig (UniProt P01730)
CD4-Ig [2] = biological target: CD4-Ig (UniProt P01730); test: SPR; CD4-Ig captured on a protein A biosensor chip; monomeric gp120 proteins flowed over as a fourfold dilution series with a maximum concentration of 250 nM
[3] = biological target: YU2wt gp120 (HIV-1 strain YU2) (UniProt P35961)
[4] = biological target: YU2_(E466K) gp120 (HIV-1 (strain YU2))
[5] = biological target: YU2_(G366E) (HIV-1 (strain YU2))
[6] = biological target: YU2_(G458D) gp120 (HIV-1 (strain YU2))
[7] = biological target: YU2_(G471R) gp120 (HIV-1 (strain YU2))

Substance	Kd (CD4-Ig [1])	koff (CD4-Ig [1])	kon (CD4-Ig [1])	other results
YU2E466K gp120 (natural protein)	1.7 nM	0.00027 s⁻¹	160000 M⁻¹ s⁻¹	
YU2G458D gp120 (natural protein)	6 nM	0.00121 s⁻¹	200000 M⁻¹ s⁻¹	
YU2G471R gp120 (natural protein)	1.6 nM	0.00021 s⁻¹	140000 M⁻¹ s⁻¹	
YU2_(G458D) gp120 (natural protein)				fold faster dissociation than YU2wt gp120 (CD4-Ig [2]): 11 fold
sCD4 D1D2 (domain or fragment)				Table S5: IC50 of sCD4 in the in vitro neutralisation of YU2wt pseudovirus on TZM-bl cells (blocks Env from CD4 on target cells) [3]: 0.29 µg/mL; neutralization of YU2 mutant pseudovirus by sCD4, TZM-bl assay, loss of sensitivity against YU2wt [4]: 30 fold; neutralization of YU2 mutant pseudovirus by sCD4, TZM-bl assay, loss of sensitivity against YU2wt [5]: 30 fold; neutralization of YU2 mutant pseudovirus by sCD4, TZM-bl assay, loss of sensitivity against YU2wt [6]: 30 fold; neutralization of YU2 mutant pseudovirus by sCD4, TZM-bl assay, loss of sensitivity against YU2wt [7]: 30 fold

— PMC7414181
